From publication PMC9731694, “SRSF5‐Mediated Alternative Splicing of M Gene is Essential for Influenza A Virus Replication: A Host‐Directed Target Against Influenza Virus” (Advanced Science, 2022) come the findings set out here.

The target in the experiment is T1, GST-U1A-His (human (amplified from A549 cells), UniProt P09012 1-282).
T1 construct: also called GST tagged U1A-His
In words: pull-down; GST pulldown: 300 ng purified SRSF5-Flag with 150 ng glutathione-bound GST-tagged protein, 300 µL, 1 h at 4 °C; 50 mM Tris pH 7.5, 200 mM NaCl, 10% glycerol, 0.5% Triton-X-100, RNaseA; blot with anti-Flag or anti-His. The note with it: both partners purified.

T1 sequence (P09012 whole entry): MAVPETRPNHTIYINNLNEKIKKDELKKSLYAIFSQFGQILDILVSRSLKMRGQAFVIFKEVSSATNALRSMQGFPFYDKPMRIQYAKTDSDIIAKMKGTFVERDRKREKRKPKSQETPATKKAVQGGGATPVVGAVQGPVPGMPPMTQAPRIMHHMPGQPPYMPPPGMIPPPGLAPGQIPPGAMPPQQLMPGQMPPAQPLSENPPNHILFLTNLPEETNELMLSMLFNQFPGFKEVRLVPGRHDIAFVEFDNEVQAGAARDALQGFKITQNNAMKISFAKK

B1: purified recombinant SRSF5-Flag (natural protein, human, UniProt Q13243 1-272, looked up)
chain: MSGCRVFIGRLNPAAREKDVERFFKGYGRIRDIDLKRGFGFVEFEDPRDADDAVYELDGKELCSERVTIEHARARSRGGRGRGRYSDRFSSRRPRNDRRNAPPVRTENRLIVENLSSRVSWQDLKDFMRQAGEVTFADAHRPKLNEGVVEFASYGDLKNAIEKLSGKEINGRKIKLIEGSKRHSRSRSRSRSRTRSSSRSRSRSRSRSRKSYSRSRSRSRSRSRSKSRSVSRSPVPEKSQKRGSSSRSKSPASVDRQRSRSRSRSRSVDSGN
notes: also called hSRSF5-Flag; Flag-SRSF5
In the case of B1, the binding result is reported as “binds”.
